Source: paper PMC10955495

What was measured:
[1] = molecular target: Cluc‐PtoE2Fa (Populus tomentosa); assay: split reporter (BiFC, NanoBiT); LCI of Cluc-PtoE2Fa with PtoDPb1^Hap1/Hap2-Nluc in young N. benthamiana leaves with co-expressed PtoWAK106-GFP (compared with GFP)
[2] = molecular target: Cluc‐PtoE2Fa (Populus tomentosa); assay: split reporter (BiFC, NanoBiT); luciferase complementation imaging (LCI): firefly luciferase complementation (Nluc / Cluc fusions) in young N. benthamiana leaves; three biological replicates
[3] = molecular target: Cluc‐PtoWAK106 (Populus tomentosa); assay: as above

Row | Substance | fold increase in luciferase activity with PtoWAK106-GFP against GFP [1] [fold] | luciferase intensity with PtoWAK106-GFP, percent higher than with PtoDPb1^Hap2 [1] [%] | luciferase activity, percent stronger than with PtoDPb1^Hap2 [2] [%] | luciferase activity, percent higher than with PtoDPb1^Hap2 [3] [%]
1 | PtoDPb1^Hap1‐Nluc (natural protein) | 3.61 | 47.3 | 85.8 | 37
2 | PtoDPb1^Hap2‐Nluc (natural protein) | 3.8 | – | – | –
